Starred links: 1 amine or outer side, 2 acyl side, 3 side chain; linkers in the order of their positions; H or OH if unused. Non-standard residues stand in square brackets, D forms with d. Groups on a side chain read outwards from the residue. Primed or numbered codes have the meaning given here. No end group written: not given here. *: point of attachment. γGlu = O=C(O)[C@H](CCC(=O)[*:2])N[*:1]; Palmitoyl = CCCCCCCCCCCCCCCC(=O)*; αMeF = C[C@](N)(Cc1ccccc1)C(=O)O; αMeK = C[C@](N)(CCCCN)C(=O)O; Lauroyl = CCCCCCCCCCCC(=O)*; PEG2′ = not defined here; Aib = CC(C)(N)C(=O)O
T1: glucose-dependent insulinotropic peptide (gastric inhibitory polypeptide) receptor (GIPR), primary cAMP assay (human, UniProt P48546 22-466)
T1 sequence (looked up): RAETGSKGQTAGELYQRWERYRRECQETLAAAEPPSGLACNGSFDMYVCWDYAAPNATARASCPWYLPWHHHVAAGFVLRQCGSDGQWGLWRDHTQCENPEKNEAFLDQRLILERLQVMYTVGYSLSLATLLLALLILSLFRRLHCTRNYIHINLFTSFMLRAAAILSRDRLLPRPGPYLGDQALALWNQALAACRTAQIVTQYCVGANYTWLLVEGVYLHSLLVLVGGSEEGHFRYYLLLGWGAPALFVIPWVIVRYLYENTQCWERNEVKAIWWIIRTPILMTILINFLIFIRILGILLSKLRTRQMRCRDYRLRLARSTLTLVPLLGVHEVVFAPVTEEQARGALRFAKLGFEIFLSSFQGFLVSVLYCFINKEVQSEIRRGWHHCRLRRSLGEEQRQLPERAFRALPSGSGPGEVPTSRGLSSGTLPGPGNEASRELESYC

T2: GLP-1R in the INS1e assay (UniProt P32301 22-463, limits assumed)
T2 sequence (looked up): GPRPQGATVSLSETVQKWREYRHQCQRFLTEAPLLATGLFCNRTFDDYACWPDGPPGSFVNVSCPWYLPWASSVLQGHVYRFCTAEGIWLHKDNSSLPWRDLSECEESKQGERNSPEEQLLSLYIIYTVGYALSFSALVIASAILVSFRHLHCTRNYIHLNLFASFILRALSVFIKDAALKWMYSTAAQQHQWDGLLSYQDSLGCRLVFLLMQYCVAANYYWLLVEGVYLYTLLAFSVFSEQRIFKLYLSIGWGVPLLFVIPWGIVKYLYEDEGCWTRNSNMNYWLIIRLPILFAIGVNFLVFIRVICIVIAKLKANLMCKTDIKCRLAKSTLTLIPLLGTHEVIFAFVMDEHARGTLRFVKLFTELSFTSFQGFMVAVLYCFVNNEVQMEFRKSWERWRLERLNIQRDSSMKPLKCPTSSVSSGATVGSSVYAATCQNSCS

B1: SEQ ID NO: 253 (peptide)
peptide: H[Aib]EGS[αMeF]TSDVSK([PEG2′-PEG2′-γGlu-Lauroyl])YLEGEAA[αMeK]EFIAWK([PEG2′-PEG2′-γGlu-Lauroyl])VEGG-NH2
B2: SEQ ID NO: 239 (peptide)
peptide: H[Aib]EGTFTSDVSK([PEG2′-PEG2′-γGlu-Lauroyl])FLEGEAAEEFIK([PEG2′-PEG2′-γGlu-Lauroyl])FVVEGG-NH2
B3: SEQ ID NO: 247 (peptide)
peptide: H[Aib]EGS[αMeF]TSDVSK([PEG2′-PEG2′-γGlu-Palmitoyl])FLEGEAAEEFIK([PEG2′-PEG2′-γGlu-Palmitoyl])FVVEGG-NH2
B4: SEQ ID NO: 238 (peptide)
peptide: H[Aib]EGTFTSDVSK([PEG2′-PEG2′-γGlu-Lauroyl])YLEGEAAEEFIK([PEG2′-PEG2′-γGlu-Lauroyl])FVVEGG-NH2
B5: SEQ ID NO: 251 (peptide)
peptide: H[Aib]EGS[αMeF]TSDVSK([PEG2′-PEG2′-γGlu-Palmitoyl])YLEGEAA[αMeK]EFIK([PEG2′-PEG2′-γGlu-Palmitoyl])WVVEGG-NH2
B6: SEQ ID NO: 250 (peptide)
peptide: H[Aib]EGS[αMeF]TSDVSK([PEG2′-PEG2′-γGlu-Palmitoyl])FLEGEAA[αMeK]EFIK([PEG2′-PEG2′-γGlu-Palmitoyl])FVVEGG-NH2
B7: SEQ ID NO: 252 (peptide)
peptide: H[Aib]EGS[αMeF]TSDVSK([PEG2′-PEG2′-γGlu-Lauroyl])YLEGEAA[αMeK]EFIAK([PEG2′-PEG2′-γGlu-Lauroyl])VVEGG-NH2
B8: SEQ ID NO: 249 (peptide)
peptide: H[Aib]EGS[αMeF]TSDVSK([PEG2′-PEG2′-γGlu-Lauroyl])YLEGEAA[αMeK]EFIK([PEG2′-PEG2′-γGlu-Lauroyl])WVVEGG-NH2
B9: SEQ ID NO: 257 (peptide)
peptide: H[Aib]EGS[αMeF]TSDK([PEG2′-PEG2′-γGlu-Lauroyl])SSYLEGEAA[αMeK]EFIAK([PEG2′-PEG2′-γGlu-Lauroyl])VVEGG-NH2
B10: SEQ ID NO: 240 (peptide)
peptide: H[Aib]EGS[αMeF]TSDVSK([PEG2′-PEG2′-γGlu-Lauroyl])YLEGEAAEEFIK([PEG2′-PEG2′-γGlu-Lauroyl])WVVEGG-NH2
B11: SEQ ID NO: 246 (peptide)
peptide: H[Aib]EGS[αMeF]TSDVSK([PEG2′-PEG2′-γGlu-Palmitoyl])YLEGEAAEEFIK([PEG2′-PEG2′-γGlu-Palmitoyl])WVVEGG-NH2
B12: SEQ ID NO: 256 (peptide)
peptide: H[Aib]EGS[αMeF]TSDK([PEG2′-PEG2′-γGlu-Lauroyl])SSYLEGEAA[αMeK]EFIK([PEG2′-PEG2′-γGlu-Lauroyl])WVVEGG-NH2
B13: SEQ ID NO: 241 (peptide)
peptide: H[Aib]EGS[αMeF]TSDVSK([PEG2′-PEG2′-γGlu-Lauroyl])FLEGEAAEEFIK([PEG2′-PEG2′-γGlu-Lauroyl])FVVEGG-NH2
B14: SEQ ID NO: 248 (peptide)
peptide: H[Aib]EGS[αMeF]TSDVSK([PEG2′-PEG2′-γGlu-Lauroyl])FLEGEAA[αMeK]EFIK([PEG2′-PEG2′-γGlu-Lauroyl])FVVEGG-NH2

Each binder was assayed against GLP-1 receptor (GLP-1R), primary cAMP assay (human, UniProt P43220 24-463) (assay: cell-based or functional assay).

Row | Primary assay EC50 (cAMP) Mean [nM] | Primary assay EC50 (cAMP), n1 [nM] | Primary assay EC50 (cAMP), n2 [nM] | Binder
1 | 0.0206 | 0.0234 | 0.0177 | B1
2 | 0.0074 | 0.0063 | 0.00845 | B2
3 | 1.67 | 1.31 | 2.02 | B3
4 | 0.011 | 0.00875 | 0.0132 | B4
5 | 0.0311 | 0.016 | 0.0462 | B5
6 | 0.0451 | 0.0292 | 0.061 | B6
7 | 0.0025 | 0.00288 | 0.00217 | B7
8 | 0.0055 | 0.00447 | 0.00649 | B8
9 | 0.0084 | 0.00436 | 0.0124 | B9
10 | 0.014 | 0.0109 | 0.0171 | B10
11 | 1.4 | 0.999 | 1.8 | B11
12 | 0.0075 | 0.00946 | 0.00557 | B12
13 | 0.0096 | 0.00755 | 0.0116 | B13
14 | 0.005 | 0.00377 | 0.0062 | B14

The binders below were run against glucagon receptor (GCGR), primary cAMP assay (human, UniProt P47871 26-477) (assay: cell-based or functional assay).
Chain of glucagon receptor (GCGR), primary cAMP assay (P47871 26-477): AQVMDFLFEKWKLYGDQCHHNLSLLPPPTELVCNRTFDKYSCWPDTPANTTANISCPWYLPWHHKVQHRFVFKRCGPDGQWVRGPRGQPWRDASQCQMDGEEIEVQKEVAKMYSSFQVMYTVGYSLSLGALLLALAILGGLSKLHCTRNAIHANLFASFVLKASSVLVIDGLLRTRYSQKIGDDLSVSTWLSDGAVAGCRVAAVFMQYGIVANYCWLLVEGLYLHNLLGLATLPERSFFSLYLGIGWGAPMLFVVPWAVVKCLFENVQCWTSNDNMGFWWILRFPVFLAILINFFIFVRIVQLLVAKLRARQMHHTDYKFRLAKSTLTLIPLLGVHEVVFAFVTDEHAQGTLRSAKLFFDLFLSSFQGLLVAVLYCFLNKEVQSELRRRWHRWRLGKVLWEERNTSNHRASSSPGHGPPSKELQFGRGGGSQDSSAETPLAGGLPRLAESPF

Row | Primary assay EC50 (cAMP), n1 [nM] | Primary assay EC50 (cAMP), n2 [nM] | Binder
15 | 22.3 | 22.3 | B1
16 | 22.5 | 22.5 | B2
17 | 21.6 | 21.6 | B3
18 | 22.4 | 22.4 | B4
19 | 21.3 | 21.3 | B5
20 | 21.6 | 21.6 | B6
21 | 22.7 | 22.7 | B7
22 | 22.1 | 22.1 | B8
23 | 22.8 | 22.8 | B9
24 | 22.2 | 22.2 | B10
25 | 21.4 | 21.4 | B11
26 | 22.2 | 22.2 | B12
27 | 22.5 | 22.5 | B13
28 | 22.4 | 22.4 | B14

Each binder was assayed against T1, glucose-dependent insulinotropic … (assay: cell-based or functional assay).

Row | Primary assay EC50 (cAMP), n1 [nM] | Primary assay EC50 (cAMP), n2 [nM] | Binder
29 | 22.3 | 22.3 | B1
30 | 22.5 | 22.5 | B2
31 | 21.6 | 21.6 | B3
32 | 22.4 | 22.4 | B4
33 | 21.3 | 21.3 | B5
34 | 21.6 | 21.6 | B6
35 | 22.7 | 22.7 | B7
36 | 22.1 | 22.1 | B8
37 | 22.8 | 22.8 | B9
38 | 22.2 | 22.2 | B10
39 | 21.4 | 21.4 | B11
40 | 22.2 | 22.2 | B12
41 | 22.5 | 22.5 | B13
42 | 22.4 | 22.4 | B14

These binders were tested against T2, GLP-1R in the INS1e assay (assay: cell-based or functional assay).

Row | INS1e assay EC50 (cAMP) Mean [nM] | INS1e assay EC50 (cAMP) n1 [nM] | INS1e assay EC50 (cAMP) n2 [nM] | Binder
43 | 2.11 | 2.08 | 2.14 | B1
44 | 13 | 14.7 | 11.2 | B2
45 | 72.1 | 72.1 | 72.1 | B3
46 | 13.7 | 15 | 12.4 | B4
47 | 7.16 | 6.47 | 7.85 | B5
48 | 38.1 | 36.7 | 39.4 | B6
49 | 0.175 | 0.184 | 0.166 | B7
50 | 0.566 | 0.721 | 0.41 | B8
51 | 0.577 | 0.812 | 0.342 | B9
52 | 6.02 | 6.86 | 5.17 | B10
53 | 71.3 | 71.3 | 71.3 | B11
54 | 1.29 | 1.25 | 1.34 | B12
55 | 6.28 | 5.84 | 6.71 | B13
56 | 0.403 | 0.337 | 0.468 | B14

Reference: patent US20200079833A1 (AstraZeneca / MedImmune, published 2020)
